Consider two substances from patent publication US9878007B2, “Syndecan peptides and polypeptides as inhibitors of vascular endothelial growth factor receptor-2 (VEGFR2) and very late antigen-4 (VLA-4)” (Wisconsin Alumni Research Foundation, priority 2015, dated 2018).

The target in experiment [1] is T1, VLA-4 and VEGFR2 (Homo sapiens, UniProt P05556+P13612+P35968).
T1 construct: the α4-integrin (VLA-4), which is expressed on myeloma cells; endogenous in cells; host or cells: CAG human myeloma cells (HPSE^low / HPSE^high) plated on fibronectin
T1 sequence (P35968 20-1356): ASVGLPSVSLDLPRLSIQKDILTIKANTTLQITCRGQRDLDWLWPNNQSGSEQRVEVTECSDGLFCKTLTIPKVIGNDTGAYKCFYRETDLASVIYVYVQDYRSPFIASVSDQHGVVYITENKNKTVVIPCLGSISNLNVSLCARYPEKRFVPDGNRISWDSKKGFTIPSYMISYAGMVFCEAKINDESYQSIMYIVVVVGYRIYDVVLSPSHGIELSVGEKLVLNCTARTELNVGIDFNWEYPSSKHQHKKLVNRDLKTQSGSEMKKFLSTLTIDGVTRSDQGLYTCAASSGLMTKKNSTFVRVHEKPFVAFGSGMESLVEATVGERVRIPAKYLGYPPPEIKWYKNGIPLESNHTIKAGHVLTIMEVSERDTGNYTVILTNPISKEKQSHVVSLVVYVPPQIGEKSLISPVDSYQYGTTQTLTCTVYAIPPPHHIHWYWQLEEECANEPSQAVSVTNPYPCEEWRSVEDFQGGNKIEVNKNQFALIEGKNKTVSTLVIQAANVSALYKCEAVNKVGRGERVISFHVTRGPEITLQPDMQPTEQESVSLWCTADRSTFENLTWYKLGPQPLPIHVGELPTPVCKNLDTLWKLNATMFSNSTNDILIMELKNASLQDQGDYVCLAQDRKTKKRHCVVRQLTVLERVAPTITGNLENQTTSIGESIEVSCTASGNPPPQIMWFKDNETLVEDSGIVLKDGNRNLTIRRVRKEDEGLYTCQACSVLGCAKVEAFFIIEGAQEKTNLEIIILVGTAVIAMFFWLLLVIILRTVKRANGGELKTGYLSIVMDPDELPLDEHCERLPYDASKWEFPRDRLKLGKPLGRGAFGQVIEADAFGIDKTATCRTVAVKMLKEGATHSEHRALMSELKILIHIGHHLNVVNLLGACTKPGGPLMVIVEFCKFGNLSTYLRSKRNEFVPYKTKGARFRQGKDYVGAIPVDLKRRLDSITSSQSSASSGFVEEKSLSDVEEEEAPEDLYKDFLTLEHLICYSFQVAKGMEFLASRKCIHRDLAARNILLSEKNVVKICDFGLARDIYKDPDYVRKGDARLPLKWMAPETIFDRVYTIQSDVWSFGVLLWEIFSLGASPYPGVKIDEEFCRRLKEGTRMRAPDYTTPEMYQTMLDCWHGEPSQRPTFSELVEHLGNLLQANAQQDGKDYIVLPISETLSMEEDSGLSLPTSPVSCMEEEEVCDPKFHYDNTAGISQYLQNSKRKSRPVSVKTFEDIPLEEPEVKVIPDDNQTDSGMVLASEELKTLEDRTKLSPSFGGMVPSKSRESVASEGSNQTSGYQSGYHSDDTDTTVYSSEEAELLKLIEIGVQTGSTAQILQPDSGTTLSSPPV
T1 sequence (P13612 34-1032): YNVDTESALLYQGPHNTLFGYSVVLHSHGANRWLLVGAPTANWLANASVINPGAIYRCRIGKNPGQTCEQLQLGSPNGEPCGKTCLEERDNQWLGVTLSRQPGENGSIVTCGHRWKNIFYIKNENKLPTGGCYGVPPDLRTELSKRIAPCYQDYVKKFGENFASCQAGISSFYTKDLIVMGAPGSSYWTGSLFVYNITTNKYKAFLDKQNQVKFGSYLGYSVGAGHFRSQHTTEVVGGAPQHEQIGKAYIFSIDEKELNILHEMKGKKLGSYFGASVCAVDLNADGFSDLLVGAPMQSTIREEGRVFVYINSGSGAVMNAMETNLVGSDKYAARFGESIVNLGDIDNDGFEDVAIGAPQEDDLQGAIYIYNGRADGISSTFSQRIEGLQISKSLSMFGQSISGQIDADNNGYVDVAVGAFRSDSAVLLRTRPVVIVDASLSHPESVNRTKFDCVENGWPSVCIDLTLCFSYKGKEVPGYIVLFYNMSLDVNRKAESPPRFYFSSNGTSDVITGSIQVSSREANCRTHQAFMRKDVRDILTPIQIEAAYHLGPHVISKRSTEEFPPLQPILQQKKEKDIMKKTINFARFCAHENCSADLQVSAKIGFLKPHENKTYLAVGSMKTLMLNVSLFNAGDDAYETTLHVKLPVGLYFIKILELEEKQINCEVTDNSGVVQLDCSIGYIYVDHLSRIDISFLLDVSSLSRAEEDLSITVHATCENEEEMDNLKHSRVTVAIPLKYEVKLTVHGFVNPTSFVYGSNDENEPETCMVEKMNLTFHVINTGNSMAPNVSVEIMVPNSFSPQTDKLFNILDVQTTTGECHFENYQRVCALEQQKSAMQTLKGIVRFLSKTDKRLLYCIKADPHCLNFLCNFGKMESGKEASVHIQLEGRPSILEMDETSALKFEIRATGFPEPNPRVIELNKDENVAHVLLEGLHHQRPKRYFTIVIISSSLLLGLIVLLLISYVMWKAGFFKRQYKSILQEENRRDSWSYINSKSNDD
T1 sequence (P05556 21-798): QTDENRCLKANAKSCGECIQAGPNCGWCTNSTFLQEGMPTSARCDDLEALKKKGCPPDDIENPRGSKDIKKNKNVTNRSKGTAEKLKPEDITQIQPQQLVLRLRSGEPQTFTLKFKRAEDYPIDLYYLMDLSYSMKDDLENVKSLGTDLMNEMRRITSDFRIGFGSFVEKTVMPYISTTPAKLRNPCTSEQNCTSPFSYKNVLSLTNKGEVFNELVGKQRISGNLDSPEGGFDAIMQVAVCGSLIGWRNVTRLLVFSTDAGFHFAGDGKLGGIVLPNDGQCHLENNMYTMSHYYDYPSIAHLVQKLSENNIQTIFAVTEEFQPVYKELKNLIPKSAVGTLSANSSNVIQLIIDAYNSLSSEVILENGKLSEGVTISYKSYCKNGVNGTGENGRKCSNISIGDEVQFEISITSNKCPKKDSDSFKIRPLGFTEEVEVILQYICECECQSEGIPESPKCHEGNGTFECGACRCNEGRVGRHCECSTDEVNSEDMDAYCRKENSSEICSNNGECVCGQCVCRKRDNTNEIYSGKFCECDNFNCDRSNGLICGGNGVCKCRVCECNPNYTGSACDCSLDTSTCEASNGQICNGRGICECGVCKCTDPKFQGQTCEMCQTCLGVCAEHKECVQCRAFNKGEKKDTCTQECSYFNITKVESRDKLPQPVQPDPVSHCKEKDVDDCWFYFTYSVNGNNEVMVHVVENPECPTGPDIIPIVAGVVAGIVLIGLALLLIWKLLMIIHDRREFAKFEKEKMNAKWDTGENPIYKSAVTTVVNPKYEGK
Nature of the experiment: Immunostaining for co-localization of GST-S1ED with VLA-4 or VEGFR2. In kind it is cell-based. The settings on record: HPSE^low cells on FN, 4 μM GST-S1ED, 2.5 hrs. The protocol:
(§1) FIGS. 5A-C. Recombinant Sdc1 ectodomain (GST-S1ED) causes capture of VEGFR2 by VLA-4. (FIG. 5A) HPSE^high cells were plated on FN for 2.5 hrs and double stained for VLA-4 and VEGFR2. (FIG. 5B) HPSE^low cells were plated on FN in the presence of 4 μM GST-S1ED. After 2.5 hrs, cells were double-stained for GST to detect the GST-S1ED and VLA-4 or VEGFR2. (FIG. 5C) HPSE^low cells were plated on FN-pre-coated dishes for 2.5 hr in the absence or presence of GST-S1ED and whole cell lysates were prepared for immunoprecipitation with anti-VEGFR2 and VLA-4 antibodies. The associated VLA-4 was detected by immunoblotting with a VLA-4 antibody.
Fixed cells on FN-coated slides were quenched with 0.1 M glycine, permeabilized with CMF-PBS containing 0.1% Triton X-100 for 3 min at room temperature (RT) and blocked with 5% BSA in CMF-PBS. […]

Experiment [2] deals with T2, VEGFR2 and VLA-4 (Homo sapiens, UniProt P05556+P13612+P35968).
T2 construct: the α4-integrin (VLA-4), which is expressed on myeloma cells; endogenous in cells; host or cells: CAG human myeloma cells (HPSE^low / HPSE^high) plated on fibronectin
T2 sequence (P35968 20-1356): as the sequence (P35968 20-1356) above
T2 sequence (P13612 34-1032): as the sequence (P13612 34-1032) above
T2 sequence (P05556 21-798): as the sequence (P05556 21-798) above
Nature of the experiment: Immunoprecipitation of VEGFR2 and detection of associated VLA-4. It is filed as cell-based. Particulars: HPSE^low cells on FN, 2.5 hr, in the presence of GST-S1ED. The protocol:
as §1
HPSE^low cells were plated on FN in the presence of 4 μg/ml GST or GST-S1ED for 2.5 hr. The cells were washed with CMF-PBS, then lysed for 20 min on ice in lysis buffer (0.5% Triton X-100 in 50 mM Hepes, 50 mM NaCl and 10 mM EDTA (pH 7.4) containing a 1:1000 dilution of protease inhibitor mixture set III (Calbiochem). Cell lysates were precleared at 13000 rpm for 20 min at 4° C. using 50 μg/ml isotype-matched nonspecific IgG and 30 μl of protein G agarose (GE Healthcare), then incubated at 4° C. overnight with either 10 μg/ml anti-α4-integrin (P1H4) or VEGFR2 (mAb 55B11) or nonspecific mouse IgG. Immunoprecipitated α4-integrin or VEGFR2 were dissolved in SDS sample buffer), electrophoresed and analyzed on western blots as described previously. […]

The test system of experiment [3] is CAG myeloma cells. Nature of the experiment: Cell spreading / attachment assay of CAG myeloma cells on FN or VCAM-1. In kind it is cell-based, human. The protocol:
Nitrocellulose-coated slides were coated for 2 hr at 37° C. with 40 μg/ml FN (kindly provided by Dr. Donna Peters, University of Wisconsin-Madison) or 5 μg/ml recombinant VCAM-1/Fc chimera (R&D Systems) in calcium and magnesium-free PBS (CMF-PBS; 135 mM NaCl, 2.7 mM KCl, 10.2 mM Na2HPO4-7H20 and 1.75 mM KH2PO4, pH7.4). Slides were blocked for 1 hr at 37° C. with RPMI 1640 containing 1% heat-denatured BSA (plating medium). Cells in plating medium were allowed to attach and spread for 2.5 hr at 37° C. Slides were fixed in 4% EM grade paraformaldehyde (Electron Microscopy Sciences) in CMF-PBS and labeled for 30 min in 0.13 μM rhodamine phalloidin (Invitrogen) in CMF-PBS. Coverslips were mounted in non-fluorescing mounting medium (Immumount; Thermo Shandon) and allowed to dry. All images were acquired with a Nikon Microphot FX microscope using a 20× objective (Nikon; Ex 541-551, DM 580, Barrier 590), Photometric CoolSnap ES camera, and version 7.7.3.0 Metamorph© Imaging software (Molecular Devices). All images represent results from triplicate wells and at least three independent experiments.

The target in experiment [4] is T3, VLA-4 (Homo sapiens, UniProt P05556+P13612).
T3 construct: the α4-integrin (VLA-4), which is expressed on myeloma cells; endogenous in cells; host or cells: CAG human myeloma cells (HPSE^low), whole-cell lysate
T3 sequence (P13612 34-1032): as the sequence (P13612 34-1032) above
T3 sequence (P05556 21-798): as the sequence (P05556 21-798) above
Description: GST pull down assay: capture of VLA-4 by GST-S1ED. It is filed as binding. The protocol: (§2) FIGS. 6A-G. Peptides derived from the active site in Sdc1 activate or inhibit adhesion and invasion. (FIG. 6A) Transwell migration assays towards FN (for 16 hrs) were performed for HPSE low or high cells in the presence of 0, 0.3, 3, and 30 μM of S1ED^210-240. Cells migrating to the bottom side of the filter were counted from five random images for each treatment. (FIG. 6B) The sequence of S1ED210-240 is shown (SEQ ID NO: 3), as well as […] truncation mutants of the peptide (SEQ ID NOs: 5, 2, 4 and 7). Amino acids shown in red appear necessary for the spreading and invasive activity. (FIG. 6C) Images of HPSE^low and HPSE^high cells plated on FN for 2 hr. (FIG. 6D) HPSE^low cells were treated with 0, 0.3, 3, 10 and 30 μM of S1ED^210-236, S1ED^210-233, or S1ED^214-240, plated on FN for 2 hr, fixed and stained with fluorescent phalloidin. Cells from five random images were quantified for cell attachment and cell spreading. (FIG. 6E) HPSE^high cells were treated with 0, 3, 10, and 30 μM of S1ED^210-236, S1ED^210-233, and S1ED^214-240, plated on FN for 2 hr, then fixed, imaged and quantified as in FIG. 6D. (FIG. 6F) Transwell migration assays towards FN (for 16 hr) were performed for HPSE^low or HPSE^high cells in the presence of 30 μM of S1ED^210-236, S1ED^210-233, S1ED^214-240 and Vandetanib. (FIG. 6G) HPSE^low cell lysates were incubated overnight with glutathione beads coated with GST or GST-S1ED in the absence or presence of 30 μM of S1ED^210-236, S1ED^210-233, and S1ED^214-240. Capture of VLA-4 or VEGFR2 was detected by immunoblotting. Sequences in FIG. 6B are 210-240 (SEQ ID NO: 3), 210-236 (SEQ ID NO: 2), 210-233 (SEQ ID NO: 4), 214-240 (SEQ ID NO: 5) and 214-236 (SEQ ID NO: 7).
(§3) CAG cells were washed with CMF-PBS and then lysed for 20 min on ice in lysis buffer. Cell debris was removed by centrifugation at 13000 rpm for 20 min at 4° C. Whole cell lysates were then incubated at 4° C. overnight with either 3 μM GST or 3 μM GST-S1ED in the absence or presence of 1 μM, 3 μM, and 10 μM S1ED^210-240 peptide. GST or GST-S1ED was captured by addition of glutathione Sepharose and the beads were washed with ice-cold lysis buffer and CMF-PBS, prior to addition of SDS-PAGE sample buffer and analyszed by electrophoresis and western blotting as described previously.

In experiment [5] the target is T4, VEGFR2 (Homo sapiens, UniProt P35968).
T4 construct: endogenous in cells; host or cells: CAG human myeloma cells (HPSE^low = empty vector; HPSE^high = human HPSE cDNA)
T4 sequence (P35968 20-1356): as the sequence (P35968 20-1356) above
Description: GST pull down assay: capture of VEGFR2 by GST-S1ED. It is filed as binding. The method, then:
as §2, §3

The subject of experiment [6] is human SKBr3 mammary carcinoma cells. Description: Breast cancer xenograft treated with systemic peptide. In kind it is in vivo. The settings on record: SKBr3 xenografts in nude mice; 1.09 mg/kg/day by Alzet pump for 3 weeks. The protocol: FIG. 9. Treatment of breast cancer xenograft with systemic S1ED^210-240. 4×10^6 human SKBr3 mammary carcinoma cells were injected in a 1:1 mix with matrigel into the posterior flanks of immunodeficient nude (nu/nu) mice and allowed to establish for one week as palpable tumors. Alzet pumps were then implanted subcutaneously on the anterior dorsal backs of the animals, systemically delivering either phosphate buffered-saline alone (PBS) or S1ED 210-240 peptide in PBS for 3 weeks of treatment. Peptide was delivered at 1.09 mg/kg/day, a concentration estimated to achieve concentrations sufficient to block the VLA-4/VEGFR2 mechanism. Tumor sizes were measured with calipers and converted to tumor volumes using the equation […]. The data are shown as the mean of 12 tumors+/−S.E.M.

Experiment [7] deals with T2, VEGFR2 and VLA-4. Nature of the experiment: Activation / inhibition of Sdc1-mediated coupling of VEGFR2 to VLA-4 (FIGS. 6A-H). It is filed as cell-based. The method, then:
as §2
It is envisioned that a peptide that contains binding sites for both VEGFR2 and VLA-4, such as 210-236, has the capacity to bridge both receptors and link them together. This activates signaling that the cells use for migration and invasion. […]

For experiment [8], the system named is CAG myeloma cells. Description: Transwell migration assay of CAG myeloma cells towards FN. In kind it is cell-based, human. Particulars: 16 hrs. The protocol:
The bottom chambers of Transwell filter chambers (8 μm pores; Corning) were coated with 40 μg/ml of FN. Cells (5×10^5 in 0.2 ml plating medium) were placed in the upper chamber and incubated for 16 hr at 37° C. in the CO2 incubator. After incubation, cells in the upper chamber were removed and cells on the bottom side of the filter were fixed in 4% paraformaldehyde (PFA) and stained with 0.1% Crystal Violet before imaging. Cells from at least five random fields were counted.

For “GST-S1ED: recombinant GST-tagged Sdc1 ectodomain expressed in bacteria and devoid of HS”, in experiment [1], the “co-localization with VEGFR2 or VLA-4” value is on record as “co-localized with VEGFR2 or VLA-4 at the protrusive lamellipodium”. Also, the “co-immunoprecipitation of VLA-4 with VEGFR2” value in experiment [2] is given as “VLA-4 is co-immunoprecipitated with VEGFR2”. In experiment [3] (on FN, GST-S1ED added), the “rescue of HPSE^high polarized phenotype blocked by MMP9 blocking antibody” value is on record as “polarized phenotype is rescued”. Also, the “induction of HPSE^low cell spreading by GST-S1ED constructs” value in experiment [3] (on VCAM-1, 4 μM GST-S1ED constructs) is listed as “induced cell spreading”. Besides, the “capture of VLA-4 by GST-S1ED” value is “captures both VLA-4 and VEGFR2” in experiment [4] (CAG myeloma cell lysates); “captures VLA-4 and VEGFR2 from HMEC-1 cells lysates” in experiment [4] (HMEC-1 cell lysate). The “capture of VEGFR2 by GST-S1ED” value is “captures both VLA-4 and VEGFR2” in experiment [5] (CAG myeloma cell lysates); “captures VLA-4 and VEGFR2 from HMEC-1 cells lysates” in experiment [5] (HMEC-1 cell lysate).

Take “S1ED^210-240: peptide corresponding to amino acids 210-240 of syndecan-1 ectodomain (SEQ ID NO: 3) (DFTFETSGENTAVVAVEPDRRNQSPVDQGAT)”: the “size of the tumors” value in experiment [6] was “effectively reduced the size of the tumors”. Besides, in experiment [3] (on VCAM-1, 0.3 μM peptide), the “induction of HPSE^low cell spreading by S1ED peptides” value is reported as “sufficient to induce HPSE^low cell spreading on VCAM-1”. Also, the “concentration at which the peptide inhibits the mechanism” value in experiment [7] stood at 30 µM. Moreover, in experiment [8] (30 μM peptide), the “FN-induced migration of HPSE^high cells” value was “decreased” and the “migration of HPSE^low cells” value was “failed to induce”. In experiment [8] (low concentrations, 0.3-3 μM peptide), the “migration of HPSE^low cells” value is “induced migration of HPSE^low cells at low concentrations”.
